Reference: PMC3061051 (Nucleic Acids Research, 2010)
Where a chain is given by its changes, count along the chain named. In names and notes the source's numbering stands. Several values for one entry are separate records, joined by “and”; a condition that tells them apart may be missing. Equal values may be shown once.

Tests used:
AUC [1] = biological target: the molecule itself; experiment: AUC
[2] = biological target: T1, Δ(F561-T562-T566)-RECQ1T1 (human, UniProt P46063 49-616, del561-562;del566-566); experiment: EMSA
T1 sequence: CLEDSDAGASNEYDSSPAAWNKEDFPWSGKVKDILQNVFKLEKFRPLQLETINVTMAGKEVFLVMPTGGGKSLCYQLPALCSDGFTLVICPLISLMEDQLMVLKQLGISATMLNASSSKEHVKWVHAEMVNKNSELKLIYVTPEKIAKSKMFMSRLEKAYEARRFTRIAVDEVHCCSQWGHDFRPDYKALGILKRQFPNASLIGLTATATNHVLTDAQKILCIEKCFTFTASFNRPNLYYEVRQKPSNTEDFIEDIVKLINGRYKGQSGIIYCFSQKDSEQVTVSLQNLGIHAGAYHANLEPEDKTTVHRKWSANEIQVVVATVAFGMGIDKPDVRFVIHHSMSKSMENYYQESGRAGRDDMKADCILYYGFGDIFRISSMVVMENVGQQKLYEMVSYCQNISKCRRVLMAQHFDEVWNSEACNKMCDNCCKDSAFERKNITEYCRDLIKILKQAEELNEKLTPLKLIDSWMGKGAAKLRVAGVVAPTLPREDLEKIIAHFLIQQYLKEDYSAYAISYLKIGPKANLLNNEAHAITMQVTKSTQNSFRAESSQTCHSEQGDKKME

W227A-F231A-RECQ1T1 = W227A-F231A-RECQ1T1 (human, UniProt P46063 49-616, W227A;F231A); experiment: EMSA
RECQ1T1 (RECQ1 49-616) = RECQ1T1 (RECQ1 49-616) (human, UniProt P46063 49-616); experiment: EMSA
[3] = biological target: T2, Y559A-S560A-F561A-RECQ1T1 (human, UniProt P46063 49-616, Y559A;S560A;F561A); experiment: EMSA
T2 sequence: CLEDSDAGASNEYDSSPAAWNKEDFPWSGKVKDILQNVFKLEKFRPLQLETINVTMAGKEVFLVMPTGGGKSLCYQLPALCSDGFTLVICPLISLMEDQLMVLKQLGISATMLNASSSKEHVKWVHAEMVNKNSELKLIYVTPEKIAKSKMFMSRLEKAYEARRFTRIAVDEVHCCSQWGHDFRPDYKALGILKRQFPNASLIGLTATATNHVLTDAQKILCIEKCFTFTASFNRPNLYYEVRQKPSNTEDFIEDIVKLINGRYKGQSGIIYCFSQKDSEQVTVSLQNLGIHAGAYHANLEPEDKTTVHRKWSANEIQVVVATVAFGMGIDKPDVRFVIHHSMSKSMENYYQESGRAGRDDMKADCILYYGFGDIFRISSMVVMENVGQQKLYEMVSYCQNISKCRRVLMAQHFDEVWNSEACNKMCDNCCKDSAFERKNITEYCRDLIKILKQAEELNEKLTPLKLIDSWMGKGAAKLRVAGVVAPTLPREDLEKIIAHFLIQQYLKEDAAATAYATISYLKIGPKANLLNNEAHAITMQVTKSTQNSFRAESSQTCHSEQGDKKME

Y564A-RECQ1T1 = biological target: T3, Y564A-RECQ1T1 (human, UniProt P46063 49-616, Y564A); experiment: EMSA
T3 sequence: T2 sequence with A511Y, A512S, A513F, Y516A

AUC [4] = biological target: the molecule itself; experiment: AUC; remark: listed apart in the source
SEC = biological target: the molecule itself; experiment: SEC

B1: Δ8-Y564A-RECQ1^FL (natural protein, human, UniProt P46063 1-649, looked up)
chain: MASVSALTEELDSITSELHAVEIQIQELTERQQELIQKKKVLTKKIKQCLEDSDAGASNEYDSSPAAWNKEDFPWSGKVKDILQNVFKLEKFRPLQLETINVTMAGKEVFLVMPTGGGKSLCYQLPALCSDGFTLVICPLISLMEDQLMVLKQLGISATMLNASSSKEHVKWVHAEMVNKNSELKLIYVTPEKIAKSKMFMSRLEKAYEARRFTRIAVDEVHCCSQWGHDFRPDYKALGILKRQFPNASLIGLTATATNHVLTDAQKILCIEKCFTFTASFNRPNLYYEVRQKPSNTEDFIEDIVKLINGRYKGQSGIIYCFSQKDSEQVTVSLQNLGIHAGAYHANLEPEDKTTVHRKWSANEIQVVVATVAFGMGIDKPDVRFVIHHSMSKSMENYYQESGRAGRDDMKADCILYYGFGDIFRISSMVVMENVGQQKLYEMVSYCQNISKCRRVLMAQHFDEVWNSEACNKMCDNCCKDSAFERKNITEYCRDLIKILKQAEELNEKLTPLKLIDSWMGKGAAKLRVAGVVAPTLPREDLEKIIAHFLIQQYAAGPKANLLNNEAHAITMQVTKSTQNSFRAESSQTCHSEQGDKKMEEKNSGNFQKKAANMLQQSGSKNTGAKKRKIDDA
AUC [1]
  stoichiometry N: 2

B2: X12 Holliday junction (structured_DNA)
DNA 1: GACGCTGCCGAATTCTGGCTTGCTAGGACATCTTTGCCCACGTTGACCCG
DNA 2: CGGGTCAACGTGGGCAAAGATGTCCTAGCAATGTAATCGTCTATGACGTC
DNA 3: GACGTCATAGACGATTACATTGCTAGGACATGCTGTCTAGAGACTATCGC
DNA 4: GCGATAGTCTCTAGACAGCATGTCCTAGCAAGCCAGAATTCGGCAGCGTC
[2]
  binding result: no binding
W227A-F231A-RECQ1T1
  binding result: no binding
RECQ1T1 (RECQ1 49-616)
  binding result: no binding
[3]
  binding result: no binding
Y564A-RECQ1T1
  binding result: no binding

B3: Full-length RECQ1 (RECQ1^FL) (natural protein, human, UniProt P46063 1-649, looked up)
chain: MASVSALTEELDSITSELHAVEIQIQELTERQQELIQKKKVLTKKIKQCLEDSDAGASNEYDSSPAAWNKEDFPWSGKVKDILQNVFKLEKFRPLQLETINVTMAGKEVFLVMPTGGGKSLCYQLPALCSDGFTLVICPLISLMEDQLMVLKQLGISATMLNASSSKEHVKWVHAEMVNKNSELKLIYVTPEKIAKSKMFMSRLEKAYEARRFTRIAVDEVHCCSQWGHDFRPDYKALGILKRQFPNASLIGLTATATNHVLTDAQKILCIEKCFTFTASFNRPNLYYEVRQKPSNTEDFIEDIVKLINGRYKGQSGIIYCFSQKDSEQVTVSLQNLGIHAGAYHANLEPEDKTTVHRKWSANEIQVVVATVAFGMGIDKPDVRFVIHHSMSKSMENYYQESGRAGRDDMKADCILYYGFGDIFRISSMVVMENVGQQKLYEMVSYCQNISKCRRVLMAQHFDEVWNSEACNKMCDNCCKDSAFERKNITEYCRDLIKILKQAEELNEKLTPLKLIDSWMGKGAAKLRVAGVVAPTLPREDLEKIIAHFLIQQYLKEDYSFTAYATISYLKIGPKANLLNNEAHAITMQVTKSTQNSFRAESSQTCHSEQGDKKMEEKNSGNFQKKAANMLQQSGSKNTGAKKRKIDDA
AUC [1]
  stoichiometry N: 4 and 2

B4: Y564A-RECQ1^FL (natural protein, human, UniProt P46063 1-649, looked up)
chain: B3 chain with Y564A
AUC [1]
  stoichiometry N: 2 and 4

B5: RECQ1^49-616 (truncated catalytic core of human RECQ1 helicase) (domain or fragment, UniProt P46063 49-616, looked up)
chain: T2 sequence with A511Y, A512S, A513F
AUC [4]
  stoichiometry N: 2

B6: Y564A-RECQ1^T1 (domain or fragment, human, UniProt P46063 49-616, looked up)
chain: T2 sequence with A511Y, A512S, A513F, Y516A
SEC
  stoichiometry N: 2

B7: W227A-F231A-RECQ1^T1 (domain or fragment, human, UniProt P46063 49-616, looked up)
chain: T2 sequence with W179A, F183A, A511Y, A512S, A513F
SEC
  stoichiometry N: 2

B8: Fork 20 duplex (dsDNA)
DNA 1: GAACGAACACATCGGGTACGTTTTTTTTTTTTTTTTTTTTTTTTTTTTTT
DNA 2: TTTTTTTTTTTTTTTTTTTTTTTTTTTTTTCGTACCCGATGTGTTCGTTC
W227A-F231A-RECQ1T1
  Kd: 10 ± 2 nM
RECQ1T1 (RECQ1 49-616)
  Kd: 8 ± 2 nM
